Data on eleven molecules can be found in US20210155689A1 (SHANGHAI PHARMAEXPLORER, published 2021).

For test [1], the target named is T1, human LAG-3 (full length, on the cell surface) (human, UniProt P18627 23-525).
T1 construct: Full-length human LAG-3 expressed on cells; also called HEK293-hLAG-3; HEK293 cells transfected with LAG-3 gene
T1 sequence: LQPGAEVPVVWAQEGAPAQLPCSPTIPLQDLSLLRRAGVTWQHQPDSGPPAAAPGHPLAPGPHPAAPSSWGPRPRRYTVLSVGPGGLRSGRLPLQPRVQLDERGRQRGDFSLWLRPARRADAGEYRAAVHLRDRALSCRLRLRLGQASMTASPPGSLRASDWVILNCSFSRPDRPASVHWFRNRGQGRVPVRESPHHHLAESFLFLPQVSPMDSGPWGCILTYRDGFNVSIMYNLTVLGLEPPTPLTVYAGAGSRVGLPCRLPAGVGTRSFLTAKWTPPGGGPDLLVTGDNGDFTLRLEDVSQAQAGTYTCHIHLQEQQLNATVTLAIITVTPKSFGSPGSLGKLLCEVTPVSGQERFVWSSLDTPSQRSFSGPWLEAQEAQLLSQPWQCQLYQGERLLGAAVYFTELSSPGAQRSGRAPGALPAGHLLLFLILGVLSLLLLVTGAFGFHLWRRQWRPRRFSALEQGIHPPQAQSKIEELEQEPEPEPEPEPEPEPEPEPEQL
Description: FACS, HEK293-hLAG-3; 0.000 nM. An excerpt:
(§1) The pIRES plasmid with the monkey-derived full-length gene was transfected into the HEK293 cell line to construct a HEK293 stable cell line containing monkey LAG-3 (herein referred to as HEK293-cLAG-3 stable cell line). The HEK293-hLAG-3 stable cell line and HEK293-cLAG-3 stable cell line were expanded in a T-75 cell culture flask to a 90% confluence. The medium was aspirated, and the cells were washed with HBSS (Hanks' Balanced Salt Solution) 1-2 times, then treated with a enzyme-free cell dissociation fluid (Versene solution: Life technology) and the cells were collected. The cells were washed with HBSS buffer for 1-2 times. After counted, the cells were diluted with HBSS to 1-2×10⁶ cells per ml, added with 1% goat serum blocking solution, incubated on ice for 20-30 minutes, and then washed with HBSS for 2 times by centrifugation. The collected cells were suspended in the FACS buffer (HBSS+1% BSA) to 2×10⁶ cells/ml, added as 100 microliters per well to a 96-well FACS reaction plate, added with 100 microliters per well of the antibody sample to be tested, incubated on ice for 1-2 hours. The plate was washed twice with the FACS buffer by centrifugation, added with 100 microliters of fluorescent (Alexa 488)-labeled secondary antibodies per well, and incubated on ice for 0.5-1.0 hours. The plate was washed 2-3 times with FACS buffer by centrifugation, added with 100 μl fixative solution (4% Paraformaldehyde) per well to suspend the cells. 5-10 minutes later, it was washed 1-2 times with FACS buffer by centrifugation. The cells were suspended with 100 microliters of FACS buffer, FACS (FACSCalibur, BD) was used for detection and the results were analyzed.

The target of test [2] is T1, human LAG-3 (full length, on the cell …). Description: FACS, HEK293-hLAG-3; 0.320 nM.
From the text: as §1
Background: In flow cytometry, cells or beads pass a laser one at a time.

Test [3] concerns the target T2, hFc tagged monkey LAG-3 protein (cLAG-3-hFc protein) (monkey; human).
T2 construct: Made in HEK293 cells; also called monkey LAG-3 extracellular domain protein; not shown: human IgG Fc fragment (hFc) of the pCpC vector
T2 chain: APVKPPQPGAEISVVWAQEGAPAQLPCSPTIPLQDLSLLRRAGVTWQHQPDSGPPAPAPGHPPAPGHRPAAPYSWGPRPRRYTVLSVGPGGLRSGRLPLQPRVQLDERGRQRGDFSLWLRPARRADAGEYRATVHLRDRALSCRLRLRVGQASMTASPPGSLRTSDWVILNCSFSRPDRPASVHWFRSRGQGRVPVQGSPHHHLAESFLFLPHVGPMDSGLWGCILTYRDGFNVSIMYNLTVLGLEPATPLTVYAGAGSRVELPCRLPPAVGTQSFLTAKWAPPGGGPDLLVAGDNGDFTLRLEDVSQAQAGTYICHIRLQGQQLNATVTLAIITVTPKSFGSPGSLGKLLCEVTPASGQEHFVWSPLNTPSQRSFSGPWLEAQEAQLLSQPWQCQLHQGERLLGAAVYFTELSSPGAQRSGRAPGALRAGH
Nature of the test: ELISA, cLAG-3-hFc coated; 0.0000 nM. How it is done: The plate was sealed with plastic film and incubated overnight at 4° C. The plate was washed 2 times with the plate washing solution (PBS+0.01% Tween20) on the next day, and added with the blocking solution (PBS+0.01% Tween20+1% BSA) and blocked at room temperature for 1-2 hours. The blocking solution was poured out, and the plate was added with 50-100 μl of the antibody sample to be tested to each well, incubated at 37° C. for 1-2 hours, and washed 2-3 times with a plate washing solution (PBS+0.01% Tween20). HRP (horseradish peroxidase) labeled secondary antibody was added, and the plate was incubated at 37° C. for 1-2 hours, and washed 2-3 times with a plate washing solution (PBS+0.01% Tween20). 100 μl of TMB substrate was added to each well. After incubated at room temperature for 15-30 minutes, the plate was added with 100 μl of stop solution (1.0N HCl) to each well.
In general terms: In an ELISA, binding on a coated surface is turned into a signal by an enzyme label.

For test [4], the target named is T3, monkey LAG-3 on cells (HEK293-cLAG-3 stable cell line) (monkey, UniProt P18627 24-525 (human entry)).
T3 construct: Full-length monkey (Chinese monkey) LAG-3 gene expressed on HEK293 cells
T3 chain: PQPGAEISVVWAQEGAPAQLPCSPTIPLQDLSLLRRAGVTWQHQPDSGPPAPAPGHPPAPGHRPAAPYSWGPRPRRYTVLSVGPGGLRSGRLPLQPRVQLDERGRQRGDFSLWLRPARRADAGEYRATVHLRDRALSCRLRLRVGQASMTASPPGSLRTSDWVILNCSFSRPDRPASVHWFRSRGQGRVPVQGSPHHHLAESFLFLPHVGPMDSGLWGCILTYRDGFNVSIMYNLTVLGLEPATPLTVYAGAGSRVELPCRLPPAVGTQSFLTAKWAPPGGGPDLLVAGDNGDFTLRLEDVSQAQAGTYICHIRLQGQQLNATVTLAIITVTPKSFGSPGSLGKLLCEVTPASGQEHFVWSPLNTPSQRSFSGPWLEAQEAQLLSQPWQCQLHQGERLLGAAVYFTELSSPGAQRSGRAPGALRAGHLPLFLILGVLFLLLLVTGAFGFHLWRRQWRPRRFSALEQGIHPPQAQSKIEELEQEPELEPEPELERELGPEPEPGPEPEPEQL
Nature of the test: FACS, HEK293-cLAG-3, antibody 1.600 nM.
From the text: as §1

Test [5] addresses T3, monkey LAG-3 on cells (HEK293-cLAG-3 …). Nature of the test: FACS, HEK293-cLAG-3, antibody 40.000 nM.
From the text: as §1

B1: 405B8H3 (mouse antibody purified from hybridoma) (antibody, V domains shown)
VH: QVQLQQSGAELVRPGASVTLSCKASGYTFTDYEMHWVKQTPVHGLEWIGATDPETGNSAYNQKFKGKAIMTADKSSSTAYMELRSLTSEDSAVYYCISTGWNDWGQGTSLTVSS
VL: DIKMTQSPSSMYASLGERVTITCKASQDINSYLSWFQQKPGKSPKTLIYRADRLLDGVPSRFSGSGSGQDYSLTISSLEYGDMGIYYCLQYDEFPYTFGGGTKLEIK
notes: also called mAb103-405B8H3; 405B81-13
Take B1: the Mean fluorescence intensity in test [1] came to 3.7 MFI; in test [2], 24.7 MFI.

B2: 405B8H3 (LAG-3 mouse-human chimeric antibody) (antibody, V domains shown)
VH: QVQLQQSGAELVRPGASVTLSCKASGYTFTDYEMHWVKQTPVHGLEWIGATDPETGNSAYNQKFKGKAIMTADKSSSTAYMELRSLTSEDSAVYYCISTGWNDWGQGTSLTVSS
VL: DIKMTQSPSSMYASLGERVTITCKASQDINSYLSWFQQKPGKSPKTLIYRADRLLDGVPSRFSGSGSGQDYSLTISSLEYGDMGIYYCLQYDEFPYTFGGGTKLEIK
notes: also called mouse-human chimeric antibody 405B8H3
Take B2: in test [3], the OD450 came out at 0.15 OD450.

B3: 105F1E10 (mouse antibody purified from hybridoma) (antibody, V domains shown)
VH: EVQLQQSGPELVKPGASVKMSCRASGYTFTDFKMHWMKQSHGKSLEWIGYIAPNNGGTAYNQKFRGKATLTVNESSNTAYMELRSLTSEDSAVYYCVDWDDVDYWGQGTTLTVSS
VL: DIKMTQSPSSMYASLGERVTITCKASQDINSYLSWFQQKSGKSPKTLIYRANRLVDGVPSRFSGSGSGQDYSLTISSLEYEDMGIYYCLQYVEFPLTFGAGTKLELK
notes: also called mAb009-105F1E10
Consider B3, for which the Mean fluorescence intensity is 3.7 MFI in test [1] and 23.3 MFI in test [2].

B4: 105F1E10 (LAG-3 mouse-human chimeric antibody) (antibody, V domains shown)
VH: EVQLQQSGPELVKPGASVKMSCRASGYTFTDFKMHWMKQSHGKSLEWIGYIAPNNGGTAYNQKFRGKATLTVNESSNTAYMELRSLTSEDSAVYYCVDWDDVDYWGQGTTLTVSS
VL: DIKMTQSPSSMYASLGERVTITCKASQDINSYLSWFQQKSGKSPKTLIYRANRLVDGVPSRFSGSGSGQDYSLTISSLEYEDMGIYYCLQYVEFPLTFGAGTKLELK
In turn, B4 registered an OD450 in test [3] of 0.15 OD450.

B5: 409B11E12 (LAG-3 mouse-human chimeric antibody) (antibody, V domains shown)
VH: QVQLQQSGAELVRPGASVTLSCKASGYTFTDYEMHWVKQTTVHGLEWIGATDPETSYSAYNQKFKGKAILTADKSSSTAYMELRSLTSEDSAVYYCIATGWNDWGQGTSLTVSS
VL: DLKMTQSPSSMYASLGERVTITCKASQDINSYLSWFQQKPGKSPKTLIYRANRLLDGVPSRFSGSGSGQDYSLTISSLEYEDMGIYYCLQYDEFPYTFGGGTKLEIK
In test [3], B5 displayed an OD450 of 0.14 OD450.

B6: 409B11E12 (mouse antibody purified from hybridoma) (antibody, V domains shown)
VH: QVQLQQSGAELVRPGASVTLSCKASGYTFTDYEMHWVKQTTVHGLEWIGATDPETSYSAYNQKFKGKAILTADKSSSTAYMELRSLTSEDSAVYYCIATGWNDWGQGTSLTVSS
VL: DLKMTQSPSSMYASLGERVTITCKASQDINSYLSWFQQKPGKSPKTLIYRANRLLDGVPSRFSGSGSGQDYSLTISSLEYEDMGIYYCLQYDEFPYTFGGGTKLEIK
notes: also called mAb104-409B11E12
Turning to B6, the Mean fluorescence intensity was determined as 2.5 MFI in test [1] and 13.4 MFI in test [2].

B7: 409D4E10 (LAG-3 mouse-human chimeric antibody) (antibody, V domains shown)
VH: QVQLQQSGAELVRPGASVTLSCKASGNTFTDYEMHWVKQTPVHGLEWIGATDPETDNTAYNQKFKGKAILTTDKSSSTAYMELRSLTSEDSAVYYCITSGWNDWGQGTSLTVSS
VL: DIKMTQSPSSMYASLGERVTITCKASQDINSYLSWFQQKPGKSPKTLIYRANRLLDGVPSRFSGSGSGQDYSLTISSLEYEDMGIYYCLQYNEFPYTFGGGTKLEIK
Regarding B7, the OD450 in test [3] worked out at 0.18 OD450.

B8: 409D4E10 (mouse antibody purified from hybridoma) (antibody, V domains shown)
VH: QVQLQQSGAELVRPGASVTLSCKASGNTFTDYEMHWVKQTPVHGLEWIGATDPETDNTAYNQKFKGKAILTTDKSSSTAYMELRSLTSEDSAVYYCITSGWNDWGQGTSLTVSS
VL: DIKMTQSPSSMYASLGERVTITCKASQDINSYLSWFQQKPGKSPKTLIYRANRLLDGVPSRFSGSGSGQDYSLTISSLEYEDMGIYYCLQYNEFPYTFGGGTKLEIK
notes: also called mAb112-409D4E10
With B8, the results for the Mean fluorescence intensity in test [1] and in test [2] were 2.8 MFI and 13 MFI, respectively.

B9: 556F6B8 mouse-human chimeric antibody (antibody, V domains shown)
VH: RVQLKQSGPGLVQPSQSLSITCTVSGFSLIKYGVHWVRQSPGEGLEWLGVIWRGGITDYNAAFMSRLSITKDNSKSQVFFKMNSLQADDTAIYYCAKWDGPLAMDYWGQGTSVTVSS
VL: DIVMTQSHKFLSTSVGDRVSITCKASQDVGTTVAWYQQKPGQSPKLLIYWASTRHTGVPDRFTGSGSGTDFTLTISNVQSEDLADYFCQQYSSYPYTFGGGTKLEIK
notes: also called mAb123-556F6B8; 556F8B8
As to B9, the results for the Mean fluorescence intensity in test [4] and in test [5] were 19.2 and 74.4, respectively.

B10: 556F6B8 (mouse antibody purified from hybridoma) (antibody, V domains shown)
VH: RVQLKQSGPGLVQPSQSLSITCTVSGFSLIKYGVHWVRQSPGEGLEWLGVIWRGGITDYNAAFMSRLSITKDNSKSQVFFKMNSLQADDTAIYYCAKWDGPLAMDYWGQGTSVTVSS
VL: DIVMTQSHKFLSTSVGDRVSITCKASQDVGTTVAWYQQKPGQSPKLLIYWASTRHTGVPDRFTGSGSGTDFTLTISNVQSEDLADYFCQQYSSYPYTFGGGTKLEIK
notes: also called mAb123-556F6B8
Regarding B10, the Mean fluorescence intensity in test [1] turned out to be 2.8 MFI; in test [2], 16.1 MFI.

B11: 556F6B8 (LAG-3 mouse-human chimeric antibody) (antibody, V domains shown)
VH: RVQLKQSGPGLVQPSQSLSITCTVSGFSLIKYGVHWVRQSPGEGLEWLGVIWRGGITDYNAAFMSRLSITKDNSKSQVFFKMNSLQADDTAIYYCAKWDGPLAMDYWGQGTSVTVSS
VL: DIVMTQSHKFLSTSVGDRVSITCKASQDVGTTVAWYQQKPGQSPKLLIYWASTRHTGVPDRFTGSGSGTDFTLTISNVQSEDLADYFCQQYSSYPYTFGGGTKLEIK
notes: also called 556F8B8
Take B11: the OD450 in test [3] is 0.19 OD450.
